From patent publication US20050124678 (Paratek Pharmaceuticals, Inc., published 2005)

Experiments:
[1] = biological target: T1, MarA (Escherichia coli, UniProt P0ACH5 P0ACH5:1-127)
T1 sequence: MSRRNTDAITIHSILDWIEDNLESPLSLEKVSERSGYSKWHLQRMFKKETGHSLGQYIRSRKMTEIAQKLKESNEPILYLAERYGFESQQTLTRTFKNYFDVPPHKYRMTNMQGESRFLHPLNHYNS

[2] = biological target: Rob (Escherichia coli, UniProt P0ACI0 SEQ:1-289)
[3] = biological target: SoxS (Escherichia coli, UniProt P0A9E2 P0A9E2:1-107)

Measured: binding result

SoxS, sequence (P0A9E2 whole entry, one chain of several): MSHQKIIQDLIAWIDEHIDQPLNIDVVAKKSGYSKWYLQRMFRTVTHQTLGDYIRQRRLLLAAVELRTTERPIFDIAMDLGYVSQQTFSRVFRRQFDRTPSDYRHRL
Rob, sequence (P0ACI0 whole entry): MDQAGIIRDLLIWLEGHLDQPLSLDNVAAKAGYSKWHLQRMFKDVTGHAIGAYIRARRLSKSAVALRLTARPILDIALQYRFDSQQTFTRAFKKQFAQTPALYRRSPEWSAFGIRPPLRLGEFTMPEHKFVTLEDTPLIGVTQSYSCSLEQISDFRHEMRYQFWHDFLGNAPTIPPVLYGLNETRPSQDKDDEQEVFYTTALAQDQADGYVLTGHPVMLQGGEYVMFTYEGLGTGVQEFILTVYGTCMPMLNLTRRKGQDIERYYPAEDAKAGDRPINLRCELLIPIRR

B1: biotinylated target DNA (SEQ ID NO. 5) (dsDNA)
DNA 1: CCGATTTAGCAAAACGTGGCATCGGTC
DNA 2: GACCGATGCCACGTTTTGCTAAATCGG
binds: [1] | [2] | [3]
